Assay results from patent US20210340208A1 (ANWITA BIOSCIENCES, published 2021).
Residue numbers refer to the chain shown, from its start. Numbers in names are those of the source.

T1: IL-2Rα, β, and γ chains on preactivated human CD3 T-cells (human, UniProt P01589 22-272; P14784 27-551; P31785 23-369)
T1 sequence (looked up) 1: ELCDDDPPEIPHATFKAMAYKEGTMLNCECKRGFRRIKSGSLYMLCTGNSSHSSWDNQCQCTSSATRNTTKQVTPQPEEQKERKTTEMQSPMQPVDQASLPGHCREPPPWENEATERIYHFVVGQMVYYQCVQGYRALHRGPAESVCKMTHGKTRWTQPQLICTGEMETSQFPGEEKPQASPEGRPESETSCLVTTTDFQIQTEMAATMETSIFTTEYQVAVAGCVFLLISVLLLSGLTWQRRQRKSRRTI
T1 sequence (looked up) 2: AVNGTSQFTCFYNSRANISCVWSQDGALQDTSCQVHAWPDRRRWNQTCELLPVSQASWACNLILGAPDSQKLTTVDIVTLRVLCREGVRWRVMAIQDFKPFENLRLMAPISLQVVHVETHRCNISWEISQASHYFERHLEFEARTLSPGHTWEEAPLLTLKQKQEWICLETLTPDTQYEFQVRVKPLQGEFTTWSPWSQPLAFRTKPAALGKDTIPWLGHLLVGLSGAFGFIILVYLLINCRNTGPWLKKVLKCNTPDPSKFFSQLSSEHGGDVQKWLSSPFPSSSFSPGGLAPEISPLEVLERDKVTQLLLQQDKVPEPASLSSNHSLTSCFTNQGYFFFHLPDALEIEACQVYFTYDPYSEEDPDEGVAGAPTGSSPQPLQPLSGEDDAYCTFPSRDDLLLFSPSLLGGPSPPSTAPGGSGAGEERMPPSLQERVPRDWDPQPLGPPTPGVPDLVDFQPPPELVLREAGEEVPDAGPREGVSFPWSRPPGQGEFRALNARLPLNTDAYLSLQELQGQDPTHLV
T1 sequence (looked up) 3: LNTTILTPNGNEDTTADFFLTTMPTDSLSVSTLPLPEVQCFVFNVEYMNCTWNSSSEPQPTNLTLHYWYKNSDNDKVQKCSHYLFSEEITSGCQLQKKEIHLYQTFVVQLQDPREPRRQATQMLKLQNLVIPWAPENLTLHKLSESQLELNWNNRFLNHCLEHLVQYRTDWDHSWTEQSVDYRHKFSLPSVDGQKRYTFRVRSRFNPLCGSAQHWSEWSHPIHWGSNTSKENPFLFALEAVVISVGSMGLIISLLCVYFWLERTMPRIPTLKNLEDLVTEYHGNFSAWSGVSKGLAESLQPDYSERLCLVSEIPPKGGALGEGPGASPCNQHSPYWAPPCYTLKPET

T2: IL-2Rα-Fc fusion protein (human, UniProt P01589 22-240)
T2 construct: also called human IL-2Rα (CD25); CD25; not shown: Fc part and any linker are not described; captured on an anti-human IgG Fc sensor
T2 sequence: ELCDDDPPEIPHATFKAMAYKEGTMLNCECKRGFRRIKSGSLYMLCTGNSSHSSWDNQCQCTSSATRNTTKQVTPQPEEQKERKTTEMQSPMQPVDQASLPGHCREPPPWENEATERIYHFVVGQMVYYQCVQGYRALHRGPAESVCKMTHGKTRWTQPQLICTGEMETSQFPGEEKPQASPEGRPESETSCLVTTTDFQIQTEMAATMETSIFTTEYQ

T3: human CD122-Fc (AbroBio) (human, UniProt P14784 27-239)
T3 construct: also called IL-2Rβ; not shown: Fc part and any linker of the bought protein are not described; captured on an anti-human Fc sensor
T3 sequence: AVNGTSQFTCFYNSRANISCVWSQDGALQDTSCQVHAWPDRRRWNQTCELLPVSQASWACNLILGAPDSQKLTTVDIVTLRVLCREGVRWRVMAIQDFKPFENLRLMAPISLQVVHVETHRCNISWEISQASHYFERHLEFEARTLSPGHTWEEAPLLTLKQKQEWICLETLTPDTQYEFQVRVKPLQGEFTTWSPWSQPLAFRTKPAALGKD

B1: hIL-2-anti-HSA A37 (ligand)
chain: APTSSSTKKTQLQLEHLLLDLQMILNGINNYENPKLTRMLTAKFYMPKKATELKHLQCLEEELKPLEEVLNLAQSKNFHLRPRDLISNINVIVLELKGSETTFMCEYADETATIVEFLNRWITFSQSIISTLTGSGGSGGSGGSGEVQLVESGGGLVQPGGSLRLSCAASGSTWSINTLAWYRQAPGKQRDLVARISSGGSTYYADSVKGRFTISRDNSKNTLYLQMNSLRAEDTAVYYCYAQSTWYPPSWGQGTLVTVSS
notes: fused to anti-HSA VHH; also called IL2 mutein (K32E, F42A, C125S)
B2: hIL-2-anti-HSA A56 (ligand)
chain: APTSSSTKKTQLQLEHLLLDLQMILNGIQSMEIDATKFYMPKKATELKHLQCLEEELKPLEEVLNLAQSKNFHLRPRDLISNINVIVLELKGSETTFMCEYADETATIVEFLNRWITFSQSIISTLTGSGGSGGSGGSGEVQLVESGGGLVQPGGSLRLSCAASGSTWSINTLAWYRQAPGKQRDLVARISSGGSTYYADSVKGRFTISRDNSKNTLYLQMNSLRAEDTAVYYCYAQSTWYPPSWGQGTLVTVSS
notes: fused to anti-HSA VHH; also called IL-2-IL-15 chimera 3
B3: hIL-2-anti-HSA A54 (ligand)
chain: APTSSSTKKTQLQLEHLLLDLQMILNGINNYENPKLTDATLYMPKKATELKHLQCLEEELKPLEEVLNLAQSKNFHLRPRDLISNINVIVLELKGSETTFMCEYADETATIVEFLNRWITFSQSIISTLTGSGGSGGSGGSGEVQLVESGGGLVQPGGSLRLSCAASGSTWSINTLAWYRQAPGKQRDLVARISSGGSTYYADSVKGRFTISRDNSKNTLYLQMNSLRAEDTAVYYCYAQSTWYPPSWGQGTLVTVSS
notes: fused to anti-HSA VHH; also called IL-2-IL-15 chimera 1
B4: hIL-2-anti-HSA A55 (ligand)
chain: APTSSSTKKTQLQLEHLLLDLQMILNGIQSMEIDATTFKFYMPKKATELKHLQCLEEELKPLEEVLNLAQSKNFHLRPRDLISNINVIVLELKGSETTFMCEYADETATIVEFLNRWITFSQSIISTLTGSGGSGGSGGSGEVQLVESGGGLVQPGGSLRLSCAASGSTWSINTLAWYRQAPGKQRDLVARISSGGSTYYADSVKGRFTISRDNSKNTLYLQMNSLRAEDTAVYYCYAQSTWYPPSWGQGTLVTVSS
notes: fused to anti-HSA VHH; also called IL-2-IL-15 chimera 2
B5: hIL-2-anti-HSA A49 (ligand)
chain: B1 chain with A42C, V69C
notes: fused to anti-HSA VHH; also called hIL-2 mutein (K32E, F42C, V69C, C125S); IL-2 with an additional disulfide bond
B6: hIL-2-anti-HSA A48 (ligand)
chain: B1 chain with R38C, A42F, L72C
notes: fused to anti-HSA VHH; also called hIL-2 mutein (K32E, R38C, L72C, C125S)
B7: hIL-2-anti-HSA A52 (ligand)
chain: B1 chain with E32K, A42C, V69C
notes: fused to anti-HSA VHH; also called hIL-2 mutein (F42C, V69C, C125S)
B8: hIL-2-anti-HSA A44 (ligand)
chain: B1 chain with R38A, A42K
notes: fused to anti-HSA VHH; also called IL2 mutein (K32E, R38A, F42K, C125S)
B9: hIL-2-anti-HSA A40 (ligand)
chain: B1 chain with R38G
notes: fused to anti-HSA VHH; also called IL2 mutein (K32E, R38G, F42A, C125S)
B10: hIL-2-anti-HSA A50 (ligand)
chain: B1 chain with A42F, Y45C, E62C
notes: fused to anti-HSA VHH; also called hIL-2 mutein (K32E, Y45C, E62C, C125S)
B11: hIL-2-anti-HSA A53 (ligand)
chain: B1 chain with E32K, A42C, V69C, K76E
notes: fused to anti-HSA VHH; also called hIL-2 mutein (F42C, V69C, K76E, C125S)
B12: hIL-2-anti-HSA A42 (ligand)
chain: B1 chain with R38E, A42G
notes: fused to anti-HSA VHH; also called IL2 mutein (K32E, R38E, F42G, C125S)
B13: hIL-2-anti-HSA A46 (ligand)
chain: B1 chain with R38G, A42K
notes: fused to anti-HSA VHH; also called IL2 mutein (K32E, R38G, F42K, C125S)
B14: hIL-2-anti-HSA A2 (ligand)
chain: B1 chain with E32K, R38N, L40T, A42F
modifications: glycosylated IL-2 (site and glycan not stated for the tested protein)
notes: fused to anti-HSA VHH; also called hIL-2 mutein (R38N, L40T, C125S); glycosylated IL-2
B15: hIL-2-anti-HSA A39 (ligand)
chain: B1 chain with R38E
notes: fused to anti-HSA VHH; also called IL2 mutein (K32E, R38E, F42A, C125S)
B16: hIL-2-anti-HSA A45 (ligand)
chain: B1 chain with R38E, A42K
notes: fused to anti-HSA VHH; also called IL2 mutein (K32E, R38E, F42K, C125S)
B17: hIL-2-anti-HSA A36 (ligand)
chain: B1 chain with R38A, A42F
notes: fused to anti-HSA VHH; also called IL2 mutein (K32E, R38A, C125S)
B18: hIL-2-anti-HSA A47 (ligand)
chain: B1 chain with K35C, A42F, L72C
notes: fused to anti-HSA VHH; also called hIL-2 mutein (K32E, K35C, L72C, C125S)

biological target: T1, IL-2Rα, β, and γ chains on preactivated …; assay: cell-based or functional assay

EC50 of STAT5 phosphorylation (phospho-STAT5 Tyr694 HTRF)	Binder
0.00092 µM	B1

biological target: T2, IL-2Rα-Fc fusion protein; assay: BLI (Octet RED96), IL-2Rα-Fc on AHC biosensor
Method: (§1) OCTET® RED96 was used to characterize the interactions of a wild-type hIL-2 and hIL-2 muteins with a human IL-2Rα (CD25). Briefly, an IL-2Rα-Fc fusion protein was loaded onto an anti-human IgG Fc capture (AHC) biosensor. The biosensor was then dipped into a solution containing a wild-type hIL-2 (WT IL-2) or an IL-2 mutein at various concentrations. Primary experimental data was analyzed with global fitting to determine a binding affinity (Kd).

binding result	Binder
no binding	B2
no binding	B3
no binding	B4
no binding	B1
no binding	B5
no binding	B6
no binding	B7
no binding	B8
no binding	B9
no binding	B10
no binding	B11
no binding	B12
no binding	B13
no binding	B14
no binding	B15
no binding	B16

biological target: T2, IL-2Rα-Fc fusion protein; assay: BLI (Octet RED96), IL-2Rα-Fc on AHC biosensor, global fit
Method: as §1

Kd	Binder
0.05 µM	B17
> 0.015 µM	B18

biological target: T3, human CD122-Fc (AbroBio); assay: BLI (Octet RED96), CD122-Fc on AHC sensor, 400 nM hIL-2 polypeptide
Method: OCTET® RED96 was used to characterize the interactions of a human CD122-Fc (AbroBio) with a wild-type hIL-2 and hIL-2 muteins. Briefly, an anti-human Fc sensor (AHC) loaded with the human CD122 was dip into 400 nM of an hIL-2 polypeptide. The binding signaling of fusion protein A1 was normalized to 1.

CD122 Binding Response (A1 normalized to 1)	Binder
1.04	B5
0.68	B14
